Measured values from patent publication US20240182575A1 (Ablynx, published 2024).
Blank lines part the entries; values can stand above or below the binder they belong to.

Key:
[1] = biological target: T1, rhB7-H2-Fc (fusion protein of the extracellular part of human B7-H2 (ICOSL) and mouse Fc gamma 1, R&D Systems … (human; mouse, UniProt O75144 19-256; P01868 98-324 = IgG part, limits assumed); assay: competition ELISA, periplasmic extract, coated B7-H2; blocked ligand ICOS-biotin
T1 construct: extracellular domain;domain: Fc; bought; also called B7-H2 ectodomain
Method: Binding specificity was determined based on OD values compared to controls having received no Nanobody (high control).
(§1) After expression, the Nanobodies were purified via the His-tag on Talon beads.

[2] = biological target: T1, rhB7-H2-Fc (fusion protein of the …); assay: ELISA, coated B7-H2
Method: Next, 10 μl of periplasmic extract containing Nanobody of the different clones in 100 μl 2% Marvel PBST were allowed to bind to the immobilized antigen. […] Binding specificity was determined based on OD values compared to controls having received no Nanobody (low control).
as §1

[3] = biological target: T2, human CD28 on Jurkat cells (human, UniProt P10747 19-220); assay: FACS, Jurkat cells
T2 construct: whole, on cells; also called native form of the CD28 antigen; cell expressed CD28
Method: (§2) Binding of putative CD28 reactive Nanobodies clones was detected using unlabeled anti-c-myc tag mouse monoclonal antibody 9E10, followed by a phycoerythrin conjugated F(ab′)2 derived from goat-anti-mouse IgG (human and bovine crossabsorbed), and read on a BD FACSarray instrument. Dead cells were excluded from the analysis by gating out TOPRO3 vital dye positive scoring cells. Binding of the Nanobodies to cells was evaluated in BD FACSarray control software as PE channel histograms.

[4] = biological target: T2, human CD28 on Jurkat cells; assay: FACS competition, Jurkat cells; blocked ligand CD80-Fc
Description: (§3) The potency of cell-expressed CD28 binding Nanobodies to inhibit the interaction of CD28 with either CD80 or CD86 was also ranked using FACS based screening method. […] Dead cells were stained by including TOPRO3 vital dye in the final resuspension buffer. All samples were read on a BD FACSarray instrument. Dead cells were excluded from the analysis by gating out TOPRO3 vital dye positive scoring cells.

[5] = biological target: T3, HuCD28-HuIgG1 (fusion protein of the extracellular part of human CD28 and human Fc gamma 1, R&D Systems Cat … (human, UniProt P10747 19-152; P01857 100-330 = IgG part); assay: competition ELISA, CD28-hFc in solution; blocked ligand coated B7-1-muFc
T3 construct: extracellular domain;domain: Fc; bought; also called CD28-Ig; hCD28-Fc

[6] = biological target: T2, human CD28 on Jurkat cells; assay: FACS competition, Jurkat cells; blocked ligand CD86-Fc
Description: as §3

[7] = biological target: T4, HuCTLA4-HuIgG1 (fusion protein of the extracellular part of human CD152 and human Fc gamma 1, CTLA4-Ig) (human, UniProt P16410 36-161); assay: competition ELISA, CTLA4-hFc in solution; blocked ligand coated B7-2-muFc
T4 construct: extracellular domain; also called CTLA4-hFc; CTLA4-Fc; not shown: human Fc gamma 1

[8] = biological target: T4, HuCTLA4-HuIgG1 (fusion protein of the …); assay: competition ELISA, CTLA4-hFc in solution; blocked ligand coated B7-1-muFc
Method: In order to determine B7-1 competition efficiency of CTLA4 binding Nanobodies, the purified clones were tested in an ELISA competition assay setup.

[9] = biological target: T5, human CTLA4 (Y201 mutated to valine) on stably transfected CHO-K1 cells (human, UniProt P16410 36-223); assay: FACS, direct binding titration on human CTLA4 CHO cells (head prints IC50)
T5 construct: whole, on cells; the mutation of the intracellular position Y201 keeps the protein on the membrane; also called human CTLA4 overexpressing CHO cells; human CTLA4 transfectant
Method: as §2, with “CTLA4” for “CD28”

[10] = biological target: T5, human CTLA4 (Y201 mutated to valine) on …; assay: competition FACS on human CTLA4 CHO cells; competitor HuCD80-HuIgG1 10 nM
Description: (§4) The potency of selected Nanobodies to inhibit the interaction of CTLA4 with CD80 was also ranked using FACS based screening method. […] This concentration was previously determined to be the minimal amount required to saturate all CD80 binding sites on both human and cyno CTLA4 expressing CHO cell clones in the absence of any CTLA4 interaction blocking proteins. […] Dead cells were stained by including TOPRO3 vital dye in the final resuspension buffer. All samples were read on a BD FACSarray instrument. Dead cells were excluded from the analysis by gating out TOPRO3 vital dye positive scoring cells.

[11] = biological target: T4, HuCTLA4-HuIgG1 (fusion protein of the …); assay: SPR, Biacore T100, CTLA4-Ig amine-coupled
Method: Affinity constants (Kd) of individual purified Nanobody clones were determined by surface plasmon resonance on a Biacore T100 instrument. […] Remaining reactive groups were inactivated using ethanolamine. […] Each sample was injected for 2 min at a flow rate of 45 μl/min to allow for binding to chip-bound antigen. Next, binding buffer without Nanobody was sent over the chip at the same flow rate to allow for dissociation of bound Nanobody. After 2 min, remaining bound analyte was removed by injecting regeneration solution (10 mM Glycine/HCl pH 1.5). Binding curves obtained at different concentrations of Nanobody were used to calculate KD values. For some clones, only a single undetermined concentrations of Nanobody was injected.

[12] = biological target: T4, HuCTLA4-HuIgG1 (fusion protein of the …); assay: alphascreen; competitor biotinylated HuCD80-MuIgG2a
Description: Individual clones were scored as putative CTLA4/CD80 interaction inhibiting if the presence of the periplasmic extract decreased the fluorescent signal of the acceptor beads.

[13] = biological target: T6, cynomolgus monkey CTLA4 on stably transfected CHO-K1 cells (human CTLA4 cDNA with S13N, I17T and L105M) (human backbone with cynomolgus monkey …, UniProt P16410 36-223); assay: FACS, direct binding titration on cyno CTLA4 CHO cells (head prints IC50)
T6 chain: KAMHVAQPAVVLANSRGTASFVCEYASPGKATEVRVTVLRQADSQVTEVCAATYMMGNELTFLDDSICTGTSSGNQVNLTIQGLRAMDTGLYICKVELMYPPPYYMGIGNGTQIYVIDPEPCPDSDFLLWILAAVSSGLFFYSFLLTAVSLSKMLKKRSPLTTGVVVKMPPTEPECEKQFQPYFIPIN

[14] = biological target: T4, HuCTLA4-HuIgG1 (fusion protein of the …); assay: competition ELISA, CTLA4-hFc in solution; blocked ligand coated B7-1-muFc; remark: listed apart in the source
[15] = biological target: T3, HuCD28-HuIgG1 (fusion protein of the …); assay: competition ELISA, periplasmic extract, CD28-hFc in solution; blocked ligand coated B7-1-muFc
Description: This mixture was applied on the coated B7-1 and CD28 was allowed to bind to the immobilized B7-1.

[16] = biological target: T5, human CTLA4 (Y201 mutated to valine) on …; assay: FACS competition, human CTLA4 CHO cells; blocked ligand CD80-Fc
Description: as §4

[17] = biological target: T1, rhB7-H2-Fc (fusion protein of the …); assay: competition ELISA, coated B7-H2; blocked ligand ICOS-biotin

B1: 95G6 (VHH)
VHH: EVQLVESGGALVQPGGSLRLSCAASGFTLGDYVIGWFRQAPGKEREWVSGISSRDGTTYYADSVKGRFTISRDNAKNTMYLQMNSLKPEDTAVYYCALRSGIAVARAPSNYDYWGQGTQVTVSS
notes: Nanobody against B7-H2 (ICOSL)
binding result [1]: binds

B3: 65C4 (VHH)
VHH: EVQLVESGGGLVQAGGSLRLSCKAAGRTFSSYAMGWFRQAPGKEREFVASIEWDGGGAYYEEAVKGRFTISRDNTKNTVYLQMDSLRPEDTAVYYCAASRWRTALTNYYDVADWGQGTQVTVSS
notes: Nanobody against CD28
EC50 (read off the curve) [3]: ~20 ng/well
IC50 (read off the curve) [4]: ~10 ng/well
IC50 (read off the curve) [5]: ~100 nM
IC50 (read off the curve) [6]: ~7 ng/well

B6: 4CTLAPMP11F1 (VHH)
VHH: EVQLVESGGGLVQAGGSLRLSCAASGGTFSFYGMGWFRQAPGKEQEFVADIRTSAGRTYYADSVKGRFTISRDNAKNTVYLQMNSLKPEDTAVYYCAAEMSGISGWDYWGQGTQVTVSS
notes: short label tied to the entry by the clone code only; also called 11F1 WT; not shown: C-terminal c-myc tag and His6 tag
IC50 [9]: 4.55 nM
IC50 [10]: 36.4 nM
Kd [11]: 10 nM
koff [11]: 0.0187 s⁻¹
kon [11]: 1.86e+06 M⁻¹ s⁻¹
IC50 [12]: 1.04 nM
IC50 [13]: 5.51 nM

B8: 65C2 (VHH)
VHH: EVQLVESGGGLVQAGGSLRLSCAASGLTFSNYVMGWFRQAPGKEREFVGTISWDGSDTYYTHSVKGRFTISRDNAKNVVNLQMNSLKPEDTAVYYCAADYRPGGLLSLGKNEYDYWGQGTQVTVSS
notes: Nanobody against CD28
EC50 (read off the curve) [3]: ~2 ng/well
IC50 (read off the curve) [4]: ~3 ng/well
IC50 (read off the curve) [5]: ~90 nM
IC50 (read off the curve) [6]: ~2 ng/well

B10: 4CTLAPMP02F4 (VHH)
VHH: EVQLVESGGGLVQTGGSLRLSCAASGRTFSNYTMGWFRQAPGKDREFVAAISRSGALKAYADSVKGRFTPSRDNAKKMAYLQMNSLKPEDTAVYYCAAAPVPWGTRPSFFPYDSWGQGTQVTVSS
notes: short label tied to the entry by the clone code only; not shown: C-terminal c-myc tag and His6 tag
IC50 [9]: 2.38 nM
IC50 [10]: 11.4 nM
Kd [11]: 0.466 nM
koff [11]: 0.00266 s⁻¹
kon [11]: 5.69e+06 M⁻¹ s⁻¹
IC50 [12]: 0.827 nM
IC50 (read off the curve) [16]: ~10 nM
IC50 [13]: 2.36 nM

The remaining lines, values ahead:

binding result [2]: binds
B2: 95E6 (VHH)
VHH: EVQLVESGGALVQPGGSLRLSCAASGFTLGDYVIGWFRQAPGKEREWVSGISSRDDTTYYANSVKGRFTISRDNAKNTMYLQMNSLKPEDSAVYYCALRSGIAVARAPTNYDYWGQGTQVTVSS
notes: as for B1

binding result [7]: binds
B4: 66B5 (VHH)
VHH: EVQLVESGGGLVQPGESLRLSCAASKSIFSISVMAWYRQAPGKQRELVARITPGGNTNYVDSVQGRFTISRDNAKNTVYLQMNSLKPEDTAVYYCNAQGSLLLAKYDYYGQGTQVTVSS
notes: Nanobody against CTLA4

IC50 (read off the curve) [8]: ~200 nM
B5: 65D10 (VHH)
VHH: EVQLVESGGGLVQAGGSLRLSCAASGRTSSTATVGWFRQAPGKEREFVAVINWRSGFTYYADSVKGRFTISREYAKNTVYLQMDSLKPEDTAVYSCAADLGGRTLYGGIHYSPEEYAYWGQGTQVTVSS
notes: Nanobody against CTLA4; also called 65D10 (4-4)

IC50 (read off the curve) [7]: ~200 nM
IC50 (read off the curve) [14]: ~100 nM
IC50 (read off the curve) [8]: ~100 nM
B7: 65H7 (VHH)
VHH: EVQLVESGGGLVQPGGSLRLSCAASGSILSIAVAGWYRRQPGKERELVATISPGNNTHYVDSVKGRFTISRDNAKNTVYLQMTTLKPDDTAAYYCNAKGSILLNAFDYWGKGTQVTVSS
notes: Nanobody against CTLA4; also called 65H7 (4-1)

binding result [15]: binds
binding result [3]: binds
B9: 65G2 (VHH)
VHH: EVQLVESGGGLVQPGGSLRLSCAASGFTLDAYAIHWFRQAPGKEREGVSCISSSDGSTYYANSVKGRFTISRDNAKNAVYLQMNSLKPEDTAVYYCATAKRCWGLSYEYDYWGQGTQVTVSS
notes: Nanobody against CD28

IC50 (read off the curve) [17]: ~10 nM
EC50 (read off the curve) [2]: ~100 nM
B11: 95G5 (VHH)
VHH: EVQLVESGGGLVQAGGSLRLSCASSGSTFSIDVMGWYRQAPGKVRERVAIIGTGGFPVYADSVKGRFTISRDNAKNTVYLQMNSLKPEDTAVYYCNAARLVALGSWGQGTQVTVSS
notes: as for B1
